The supplement of paper PMC10567573

Test: protein stability index of a GFP-peptide fusion (GPS, HEK-293T) (PSI 1-6); higher = more stable
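Also: lentivirally expressed fusions sorted by FACS into six bins by GFP to DsRed ratio, PSI derived from sequencing read proportions per bin multiplied by bin number.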

Protein DVAGNLDYKALSYVITHGEEKEE has a protein stability index (parent: IOH44370_26, c terminus: native) of 2.21.

YPSYKVREKIETVKYPTYPEAEK gave a protein stability index (parent: IOH44218_94, c terminus: native) of 4.2.

TLSEAYIQIWKRRDNDETNQQGA gave a protein stability index (parent: IOH45672_93, c terminus: native) of 2.22.

Work on AKREETKAMESQRAYRFVQGKDWG yielded a protein stability index (parent: IOH45687_19, c terminus: a fixed tail appended) of 2.71.

Work on HHVADAYTSSQKVSPIQIDGAGRT yielded a protein stability index (parent: IOH51997_53, c terminus: a fixed tail appended) of 3.46.

FQFASIDVAGNLDYKALSYVITHG showed a protein stability index (parent: IOH44370_25, c terminus: a fixed tail appended) of 2.42.

Work on KLLVVDRTRRLGNMKNGANDVKHH [PRKX WT] yielded a protein stability index (parent: IOH45425_47, c terminus: a fixed tail appended) of 3.15.

Protein NWLGRPSKVLSLQDLCCRTIVSCT [RAB40A WT] has a protein stability index (parent: IOH45721_31, c terminus: a fixed tail appended) of 2.45.

In the case of FQGSMRIFTKKLPHPDLPAEEKEQ, the protein stability index (parent: IOH45672_59, c terminus: a fixed tail appended) is reported as 2.02.

In the case of VTIKHVACGDFFTACLTDRGIIMT, the protein stability index (parent: IOH45357_66, c terminus: a fixed tail appended) is reported as 2.6.

With KASGRFGLLQGTSAETSGGLLICL [SEPHS2 WT] the protein stability index (parent: IOH46138_60, c terminus: a fixed tail appended) was 2.7.

Work on SLARLQQLLFVIFLLLYLFTLGTN [OR10K2 WT] yielded a protein stability index (parent: IOH46300_4, c terminus: a fixed tail appended) of 2.15.

Work on YVQEKRDGLKRRQQLEEELLRAKI [RAD54B WT] yielded a protein stability index (parent: IOH45968_20, c terminus: a fixed tail appended) of 1.89.

YAHQPRTADEIPMEPGDIIGVAGN gave a protein stability index (parent: IOH44218_86, c terminus: a fixed tail appended) of 4.04.

Protein YKYCDHENAAFKDVALVLTVLLEE has a protein stability index (parent: IOH51997_64, c terminus: a fixed tail appended) of 2.27.

LWVQGDIFRSKLKNRPSSEGSINK gave a protein stability index (parent: IOH46617_56, c terminus: a fixed tail appended) of 2.28.

YTGRAPNLDKMADNLLAAADKYAL gave a protein stability index (parent: IOH45687_44, c terminus: a fixed tail appended) of 2.12.

In the case of FHHIPSTCQRVNGIKVQNGGIVTD, the protein stability index (parent: IOH52104_37, c terminus: a fixed tail appended) is reported as 1.8.

Work on DGAGRTWQDSDTVKLLVDLELSYG yielded a protein stability index (parent: IOH51997_56, c terminus: a fixed tail appended) of 1.82.

FHLAPARAGHHPNQYATCRLCGRQ gave a protein stability index (parent: IOH45853_11, c terminus: a fixed tail appended) of 1.84.

For ANPYWTSRGSSVSMSGGRFRCPTC, the protein stability index (parent: IOH45956_10, c terminus: a fixed tail appended) was 1.99.

FSEPSFITESYQTLHPISSEELLS gave a protein stability index (parent: IOH46473_30, c terminus: a fixed tail appended) of 1.94.

For AGQEGEDTLRRRLLAPEAGSHPQQ, the protein stability index (parent: IOH51997_29, c terminus: a fixed tail appended) was 2.33.

LNLAMVYRYCCKLNKKLKSYSLSR gave a protein stability index (parent: IOH46617_10, c terminus: a fixed tail appended) of 2.15.

In the case of YQQIKAGAYDFPSPEWDTVTPEAK [CAMK2B WT], the protein stability index (parent: IOH45432_38, c terminus: a fixed tail appended) is reported as 3.58.

FASLRPSEPFLTPYLLGPDKNLTE showed a protein stability index (parent: IOH52104_8, c terminus: a fixed tail appended) of 2.

For NWRYATGGWETVFRPVSETCTDRS, the protein stability index (parent: IOH44218_42, c terminus: a fixed tail appended) was 1.78.

Protein FRCPTCRHEVIMDRHGVYGLQRNL has a protein stability index (parent: IOH45956_13, c terminus: a fixed tail appended) of 1.95.

In the case of QRITQEQEKKLSFIEALIQQYQEQ, the protein stability index (parent: IOH45956_39, c terminus: a fixed tail appended) is reported as 2.31.

KTIEELRDKILTATIENNRVILEI showed a protein stability index (parent: IOH51951_27, c terminus: a fixed tail appended) of 2.97.

In the case of QEKKLSFIEALIQQYQEQLDKSTK, the protein stability index (parent: IOH45956_40, c terminus: a fixed tail appended) is reported as 2.57.

YGSFHQQYWLDGKIIAVGVIDILP gave a protein stability index (parent: IOH45551_57, c terminus: a fixed tail appended) of 2.33.

For IYPVWTYSYLVLLFPVFLATDYLR, the protein stability index (parent: IOH52104_13, c terminus: a fixed tail appended) was 2.89.

For NETGYLSSVECYNLETNEWRYVSS, the protein stability index (parent: IOH52486_73, c terminus: a fixed tail appended) was 2.24.

With YGGGLGGGFGGGFAGGFVDFGACD the protein stability index (parent: IOH51951_13, c terminus: a fixed tail appended) was 1.83.

Work on YTSSQKVSPIQIDGAGRTWQDSDT yielded a protein stability index (parent: IOH51997_54, c terminus: a fixed tail appended) of 3.33.

Work on YVIGGRNETGYLSSVECYNLETNE yielded a protein stability index (parent: IOH52486_72, c terminus: a fixed tail appended) of 1.96.

TSSASVTTTSNASGRRTSDVRRP gave a protein stability index (parent: IOH51951_76, c terminus: native) of 2.45.

With FVEKNPTIVNFPITNVDLREYLSE the protein stability index (parent: IOH45672_78, c terminus: a fixed tail appended) was 1.94.

For GPHPKSKIENGYPLHAPEAYFPYF, the protein stability index (parent: IOH46617_33, c terminus: a fixed tail appended) was 2.25.

Work on VVGTPCYISPELCEGKPYNQKSDI yielded a protein stability index (parent: IOH45357_28, c terminus: a fixed tail appended) of 2.69.

With RAGHHPNQYATCRLCGRQVSRGPG the protein stability index (parent: IOH45853_12, c terminus: a fixed tail appended) was 2.02.

Protein ITDSYPVVKRREGPAGHSKGELAP [POLD4 WT] has a protein stability index (parent: IOH45937_2, c terminus: a fixed tail appended) of 2.96.

PDDKLTLFCEVSVVQDSVNISGHT showed a protein stability index (parent: IOH45687_26, c terminus: a fixed tail appended) of 2.06.

In the case of DVPDLQSVCSCTCYRSQDYGGRSV, the protein stability index (parent: IOH45737_49, c terminus: a fixed tail appended) is reported as 1.8.

For TPGIDLTRVLAEMREQYEAMAERN, the protein stability index (parent: IOH51951_45, c terminus: a fixed tail appended) was 3.68.

In the case of CFITLTTIGFGDYVALQTKGALQK, the protein stability index (parent: IOH45737_33, c terminus: a fixed tail appended) is reported as 2.94.

YTFGSNQHGQLGTNTRRGSRAPCK gave a protein stability index (parent: IOH45357_98, c terminus: a fixed tail appended) of 3.79.

In the case of DYFPSEDFYRCGYCKNESGSRSNG, the protein stability index (parent: IOH45551_3, c terminus: a fixed tail appended) is reported as 2.1.

Protein SPGHSSAGQEGEDTLRRRLLAPEA has a protein stability index (parent: IOH51997_28, c terminus: a fixed tail appended) of 4.18.

Protein YQDMIYAVGGRDDTTELSSAERYN [KLHL20 WT] has a protein stability index (parent: IOH45628_85, c terminus: a fixed tail appended) of 2.4.

QVPVVDFQAELRQAFLAETPRGG [SNURF WT] showed a protein stability index (parent: IOH45840_9, c terminus: native) of 2.99.

In the case of YVRDRADLNKDKPVIPAAALAGYT, the protein stability index (parent: IOH46473_52, c terminus: a fixed tail appended) is reported as 2.15.
